± gives the uncertainty stated by the source.
Assay: amyloid nucleation score (Sup35N fusion, yeast selection) (log enrichment); library NNK2; higher = more nucleation; inactive = no reads after selection
In short: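 Psi-negative yeast expressed Sup35N fused to peptides of 20 random codons. They were induced 24 hours with 100 μM copper sulfate, grown 7 days at 30°C without adenine and uracil, and their plasmid inserts from input and output were Illumina-sequenced. The nucleation score is the DiMSum log enrichment of output over input reads, centred on the mode score of non-aggregating sequences. Sequences with under 100 input reads were excluded.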

Row | Substance | amyloid nucleation score
1 | LRQYKRALAVGLDWFPSVLR | 0.113 ± 0.8
2 | LRRTTGYSKLTCLTHG | 4.34 ± 0.048
3 | LRRVSGRLDSIWSWCVRCNE | -1.02 ± 1.1
4 | LRSHLEYGRLCVCTQELMRR | 4.882 ± 0.041
5 | LRSSKKCYTILYVSYTLK | -1.15 ± 1.1
6 | LRSWSLAMRGDIMGTVRWLR | 0.413 ± 0.56
7 | LRVWYDSSAVDMLNVLMSFP | 5.737 ± 0.032
8 | LRWAYMNTARQACMKAENG | -0.079 ± 0.62
9 | LRWDGEDWRWDALWVTSSVC | 0.512 ± 0.2
10 | LRYIFKMS | -1.34 ± 0.49
11 | LRYVVNPF | -0.979 ± 0.37
12 | LSASW | 1.44 ± 0.38
13 | LSILCGDCSDGRS | -0.245 ± 0.2
14 | LSLLVSLTRTMFNLNNTCTA | -0.17 ± 0.65
15 | LSMERSVGFYDTVTLWLQRK | 5.9 ± 0.056
16 | LSNAYRTGFPLICSLNNHRH | 1.03 ± 0.68
17 | LSNLEAEAWMRAYCIRVKIT | 2.16 ± 0.1
18 | LSNYARGRVDVTLKNYLLLE | 0.476 ± 0.51
19 | LSPLIAAHSTERVYWY | 0.262 ± 0.46
20 | LSPPYYYHMNCLPYNMSIWP | 2.39 ± 0.09
21 | LSPYYSLCVSGSTWSAVQPL | 0.476 ± 0.51
22 | LSRESTCIFSMNKDVFS | 0.016 ± 1.1
23 | LSRIRVHSIRLYSVFPVMFC | 3.67 ± 0.072
24 | LSRLNFGIFDKVTAATGLMK | -1.26 ± 0.78
25 | LSRQFRRYLMLSLFYFVLLP | -1.21 ± 0.38

Row | Substance | amyloid nucleation score
26 | LSSHVCGGM | 4.8 ± 0.054
27 | LSTANSNSRAVFIIKMRGLL | inactive
28 | LSYLHG | -0.913 ± 0.63
29 | LSYRRFFRLILKGAVG | inactive
30 | LSYVWYTQIARPGNSGFNLL | 2.12 ± 0.14
31 | LTCSKSPIWWAIIFVGYFTN | 0.022 ± 0.62
32 | LTIRGKVTSTVAMLLDFLDS | 5.86 ± 0.062
33 | LTIVWLVVVYGLWGVSTFSL | inactive
34 | LTLHICRAAVYSYGTLS | 1.63 ± 0.12
35 | LTLIVNPLVNSPPGPQASLT | 0.735 ± 0.23
36 | LTLLHFRREDTHCSGTGTPC | 1 ± 0.2
37 | LTRMKT | -0.311 ± 0.63
38 | LTSFGDEC | -0.153 ± 1.1
39 | LTSNPVPSNLT | 3.35 ± 0.076
40 | LTSSA | -0.315 ± 0.49
41 | LTTVGHSVKLSWRVLSG | 1.9 ± 0.18
42 | LTVDCQDSLLYWHRMMSRPL | 0.853 ± 0.31
43 | LTYRVCHEVQGQRYCMAREH | 0.174 ± 0.74
44 | LTYYLSYCHYRRTYLAGLLQ | -0.249 ± 0.2
45 | LVEFSSRFQLGFTGSVNS | 1.21 ± 0.16
46 | LVFHRVTWLTDNMQWKGTPG | 3.2 ± 0.078
47 | LVFKAPRTITSPCCYGSNWS | 0.504 ± 0.36
48 | LVFMAFC | 4.839 ± 0.04
49 | LVGHYSDRDYVEYARRDCAG | 0.252 ± 0.8
50 | LVGVPNYVRMHYARLSLTAL | inactive

Row | Substance | amyloid nucleation score
51 | LVHSLDFL | -0.389 ± 0.61
52 | LVISM | 0.348 ± 0.46
53 | LVKKWVWLLCCYRISWGRLR | -0.346 ± 0.28
54 | LVKLEKHRLKVVNDYNSFEG | inactive
55 | LVKLEYALSVFRENSGSNLN | 1.07 ± 0.3
56 | LVLAGSYDRCLPSCVVMRKG | 0.461 ± 0.64
57 | LVLLKGYKRSNNGKQCYAGL | 0.365 ± 0.66
58 | LVLPYSGTHAGLRVWCGSSV | 0.696 ± 0.34
59 | LVNFSSLIV | -2.07 ± 1.1
60 | LVQCLLYSLWCQALSQPMYV | -0.753 ± 1
61 | LVRHFIHGSTA | -1.23 ± 0.49
62 | LVRMIYTYSVRSDSVSFKSF | -0.132 ± 0.38
63 | LVSMLVFL | 2.15 ± 0.15
64 | LVTLRKMDPSPRRVIFNVCN | 0.935 ± 0.39
65 | LVVLWK | 6.01 ± 0.061
66 | LVWRDV | 0.729 ± 0.51
67 | LVYESSDYFVNIIEDNLLVS | inactive
68 | LVYTPCLILGDELAVTGVKR | -0.337 ± 0.23
69 | LWAYPLSMLWGKLFMDGMLL | -0.486 ± 0.27
70 | LWCPVHRAYGYAIHSVKGAH | 1.04 ± 0.34
71 | LWFLS | 0.393 ± 0.33
72 | LWNWRACARLG | 1.25 ± 0.24
73 | LWREYLVHGSP | 0.329 ± 0.5
74 | LWVVQTVDHTSKSSSVWSSL | 4.16 ± 0.078
75 | LYCDECISWYAHDWLNI | 0.409 ± 0.45

Row | Substance | amyloid nucleation score
76 | LYCIVQGKSSGIHQRATFCF | inactive
77 | LYDWRWSWSRSATSSFGWLT | 0.296 ± 0.49
78 | LYETSMNDPMRVHHLRCEFI | -0.254 ± 0.56
79 | LYFDVTQ | -0.611 ± 0.32
80 | LYGHSVNMVV | -0.224 ± 0.39
81 | LYGIVITTLSSYCGGFLNSR | inactive
82 | LYGMF | -0.261 ± 0.63
83 | LYIDIRRSCLVCNGMSWRAG | 5.865 ± 0.052
84 | LYIYLNYFNTAVTFYGCVCS | 3.94 ± 0.052
85 | LYKVYVFYNNNVVMVRLALK | inactive
86 | LYLTYKVVHTSTPPVASYCE | 5.855 ± 0.033
87 | LYQMCIRLI | -0.657 ± 0.55
88 | LYQWSGLIKSVLNSGCGKVE | 0.315 ± 0.54
89 | LYRFAMLLRLGARSVNMLGK | -0.573 ± 1.1
90 | LYRFSNST | -0.968 ± 0.29
91 | LYSMSHCWHVQCWEFDSYVG | -0.174 ± 0.23
92 | LYSTRRCHVRELVPLLGARS | 0.362 ± 0.25
93 | LYTRMPMYGHSEKFLVCESS | -0.486 ± 0.27
94 | LYVNLRCRNYYVAVPVGDWD | 4.9 ± 0.068
95 | LYYVMSPWLITSRAWDGSSS | 0.778 ± 0.67
96 | MAELLHKYGYKDAVRNIHPY | 0.641 ± 0.62
97 | MAGVTPLELLCGPNQFALMR | 1.95 ± 0.48
98 | MAKIFFPNRQVIPPTRMQRV | 1.12 ± 0.47
99 | MCCGISMVFGDCSQVSVLIR | 8.847 ± 0.047
100 | MCCPRSNFGYPFHVNLDMWG | -0.186 ± 0.55

Row | Substance | amyloid nucleation score
101 | MCDIVHY | -0.446 ± 0.79
102 | MCEYLWCMGACNQASLTYLS | 5.787 ± 0.032
103 | MCSMCIVLPPVCVLKAKVYT | 3.69 ± 0.081
104 | MCTGVPINGFWVCPYDQSGK | 0.108 ± 0.33
105 | MCWVANNVTNPVEVEYERSL | -0.821 ± 1.1
106 | MDAYRCWAQMYRTYMLMCLV | 0.039 ± 0.27
107 | MDGNDYAVVR | 0.861 ± 0.23
108 | MDKFFFSFTYGGLSQPDQGV | -1.35 ± 1.1
109 | MDLMGCLYYPDT | 1.05 ± 0.35
110 | MDLRWKSSGRKVNLNRLIQR | 4.647 ± 0.036
111 | MDPYYRKICSCDVGVNYRFL | inactive
112 | MDWVQGAFMPRGSGHWHN | -0.327 ± 0.79
113 | MDYWVFMPFQLHRLCCYTPL | -0.303 ± 0.24
114 | MEGVAK | 0.331 ± 0.8
115 | MEKVHV | 1.65 ± 0.48
116 | MENGHCYFCQCTKSH | 2.85 ± 0.1
117 | MEPNYGVRGVMYNFVMPRWM | 7.251 ± 0.047
118 | MFGGLGTDSLA | -0.46 ± 1
119 | MFILGAHGKFGSTTMGVLAC | -1.64 ± 0.62
120 | MFRSVRFVCWSRLIDNRYMQ | -0.18 ± 0.34
121 | MFSESE | -0.275 ± 0.35
122 | MFSIYLLSCPLYISMNWSCR | 0.183 ± 1
123 | MFSRIWPSSDL | -0.324 ± 1.1
124 | MFSYTVSVLDLIYKSIWECE | -0.941 ± 0.35
125 | MFWRSYNWDFSCYCNCSRGR | 5.054 ± 0.033

Row | Substance | amyloid nucleation score
126 | MGFLLRLCTYRCVVVIWGSI | -1.08 ± 0.43
127 | MGLWLDYDTHCYQNVVFKRT | 2.41 ± 0.091
128 | MGRGPESQHFVCCHRRAWL | 1.15 ± 0.3
129 | MGTHKTDGRRQYLVVSSCEV | 0.115 ± 1
130 | MHRSCGEIACTKKVAIEMKD | 1.34 ± 0.18
131 | MHSFHTICLLLMWRESRIAV | 0.45 ± 0.39
132 | MIEKVQFQCLVIICRNGVV | 6.565 ± 0.052
133 | MIERMSNRGMACLFVETRSG | -0.149 ± 0.76
134 | MIFYDAIGWKLGNRGSN | -0.728 ± 0.45
135 | MIGNQNQGVCW | 0.141 ± 0.29
136 | MIGVYDGLRHNVEQGFVWCE | 0.419 ± 0.51
137 | MIQEVLWLVSS | 0.043 ± 0.49
138 | MISRCDWFWSKLKTSL | 2.29 ± 0.06
139 | MIVLIQKGLWGFDLQAVFVP | -0.653 ± 1.1
140 | MIVVCVRLYQGRYGRMPDYE | -0.16 ± 0.37
141 | MKCDIFGGLSDN | 0.698 ± 0.62
142 | MKGFELSLLVMRHSLELYRI | 0.463 ± 0.65
143 | MKRVGKFVGLGGRHVVHSRV | 0.434 ± 0.33
144 | MKTSLYRRGNPRLYREKSRK | 1.01 ± 0.27
145 | MLDLIRLNDVICSQKFH | 0.48 ± 0.64
146 | MLDLNQFLCRGFKLTRPYGL | -0.155 ± 0.54
147 | MLECVSALGKLGWFIQPVCL | -0.32 ± 0.55
148 | MLERHKDRTRSGLKRGARET | 0.84 ± 0.46
149 | MLFSNVLLCKLCIFA | 6.96 ± 0.055
150 | MLGHSWHF | inactive

Row | Substance | amyloid nucleation score
151 | MLPFNRSVPNAAFFIGMIGS | 2.16 ± 0.076
152 | MLSEADNLRRSYRHRIYEFI | -0.874 ± 0.76
153 | MLWVWSLSQTLVRTKVRVLS | 0.024 ± 0.5
154 | MLYVVCFCILVFLFHTNRMR | -0.674 ± 0.32
155 | MLYYNESVINAVVYVKGRCW | -0.012 ± 1.1
156 | MMIPFVMYYRFDGYVKRHTG | -0.512 ± 0.76
157 | MMNCNVLMDKSSCFRYIVWG | 3.77 ± 0.051
158 | MMWLGFYSCKGIGW | 3.991 ± 0.039
159 | MMWLSARMQR | 6.727 ± 0.049
160 | MMYDRIIQFTLYTLI | 3.09 ± 0.057
161 | MNCVLQKLVVVCFQSMAYMR | 0.498 ± 0.27
162 | MNFWILFQNLQHRCVQVTGR | 3.64 ± 0.068
163 | MNSIKMEGVRYNNPNDYTFC | -1.14 ± 1.1
164 | MNSSQGTDAKRMLYHRCSET | -0.29 ± 0.56
165 | MNVYMGFTKVLSAVPRLLYG | -0.408 ± 0.56
166 | MPVHSQSRMVRRRVDKTI | -0.632 ± 0.76
167 | MQAMRRGQKYKSGRVIYVRG | -0.554 ± 0.63
168 | MQFLFK | -1.33 ± 1.1
169 | MQIIGWILWGVLQAELHYRS | -1.01 ± 0.53
170 | MQIKFKS | -0.38 ± 0.56
171 | MQLCYKYRTVVTSSLDPEYM | -0.066 ± 0.74

Reference: the supplement of paper PMC12042874
